Measured values reported in paper PMC7105311, “Structure and function of Bs164 β-mannosidase from Bacteroides salyersiae the founding member of glycoside hydrolase family GH164” (The Journal of Biological Chemistry, 2019).

Columns and labels:
[1] = substrate: O=[N+]([O-])c1ccc(O[C@@H]2O[C@H](CO)[C@@H](O)[C@H](O)[C@@H]2O)cc1; assay: stopped assay, p-nitrophenol absorbance; format: biochemical, Bacteroides salyersiae; details: 80 mM MES pH 5.5, 160 mM NaCl, 25 °C
Description: stopped assay, p-nitrophenol absorbance on Bs164

purified protein = substrate: Cc1cc(=O)oc2cc(O[C@@H]3O[C@H](CO)[C@@H](O)[C@H](O)[C@@H]3O)ccc12; assay: purified protein; format: biochemical, Bacteroides salyersiae; details: 80 mM MES pH 5.5, 160 mM NaCl, 25 °C

B1: Bs164 (Bacteroides salyersiae CL02T12C01) (protein)
chain: ERISKQSTPFVGAQIFIEPGQTQEQIEQWFKLLAESNMTTCRIRMFGKYMKTPSGTYDFTLFDRAFKLADKYHIKVYATLFPDTEFTDVGGFKFPHSREHQKEVEDYIKNVVSHFSQYKNLAAWVLINEPGTPNLPFNEPFTKERFSDWKKEHNFSEYNEKGYPVLNFEKENFIIDYHNWYLNWLANQVRLYDKQHDLHVNPHNVFKLSGLYDFPTWRTFLNSLGGSAHASWHFGYFPRKAYTVAMSANAELIRSGAGELPWLMTELQGGNNLYSGANPLCPTAEEIIQWLWINFATEAKGGIFWSFNARSTAAEAGEWAMINFKNKSSDRLIAAATIGKFITENVKMMSNIKTLNSGISILYNHESMWVEAAQTRGKLNGNGRSIGAVMCSPLSYFEALSETGLQANFKEIKEFDFSLNDYTDQVIILSHQIALDNKVIKQLESFVEKGGTLIADGLTGYYDYQAHSTVVSGFALENLFGSYPIEYKIKENLFSLDFEKDNYKLPAHLWKGTIETSKATPIMDKEGECIACINQYGKGKVFWIPSPIALGARESKDFSELSKLTVSLLPNKILNDNPHFDKHYKDVMMKSFKSNGTMYSLIINKSASVQTVDIVGGKGKAFILFANKNAHSTANKLTISPEETVIIKWKNN
notes: tag cut by 3C protease for kinetics, His6-tagged for crystals
Work on B1 yielded a Km [1] of 3600 ± 800 µM, a kcat [1] of 40 ± 3 s⁻¹ and a kcat/Km [1] of 11000 ± 3000 M⁻¹ s⁻¹. For the same protein, the Km (purified protein) was 1050 ± 80 µM, the kcat (purified protein) was 1.8 ± 0.05 s⁻¹ and the kcat/Km (purified protein) was 1700 ± 100 M⁻¹ s⁻¹.
